Data taken from publication PMC8041747.

Target: full-length 13-lined ground squirrel TRPV1 (13-lined ground squirrel (Ictidomys tridecemlineatus))
Test: cryo-EM structure; purified sqTRPV1 in 150 mM NaCl, 20 mM Tris pH 8.0, 1 mM βME, 0.01% GDN; apo, with 50 μM RTX or with 300 μM capsaicin

stoichiometry N: 4 subunits
Substance: full-length 13-lined ground squirrel TRPV1 (natural protein)
